These results are taken from PMC5716276 (The Journal of Cell Biology, 2017).

The assay concerns the target T1, Strep lyspersin (subunit of recombinant BORCΔBLOC-1) (UniProt Q96GS4 1-357).
T1 sequence: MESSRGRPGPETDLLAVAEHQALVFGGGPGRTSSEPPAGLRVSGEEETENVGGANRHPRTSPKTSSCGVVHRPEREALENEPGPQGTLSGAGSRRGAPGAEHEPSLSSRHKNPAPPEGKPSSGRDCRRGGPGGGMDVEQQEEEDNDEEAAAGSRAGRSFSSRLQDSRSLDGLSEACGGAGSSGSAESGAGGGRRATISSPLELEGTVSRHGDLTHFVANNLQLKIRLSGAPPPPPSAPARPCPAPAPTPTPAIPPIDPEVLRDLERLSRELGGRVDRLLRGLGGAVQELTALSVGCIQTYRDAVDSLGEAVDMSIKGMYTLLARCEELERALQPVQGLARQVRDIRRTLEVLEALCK
The assay is described as follows: cross-linking.

B1: KxDL1 (subunit of recombinant BORCΔBLOC-1) (natural protein)
chain: MDLPDSASRVFCGRILSMVNTDDVNAIILAQKNMLDRFEKTNEMLLNFNNLSSARLQQMSERFLHHTRTLVEMKRDLDSIFRRIRTLKGKLARQHPEAFSHIPEASFLEEEDEDPIPPSTTTTIATSEQSTGSCDTSPDTVSPSLSPGFEDLSHVQPGSPAINGRSQTDDEEMTGE
For the molecule B1, the binding result is given as “binds”.
